Drawing on patent publication US20110250613A1, “Arrayed Multiple Ubiquitin Binding Domains as Linkage-specific Polyubiquitin Affinity Reagents” (THE JOHNS HOPKINS UNIVERSITY, priority 2009, published 2011), this text covers Kd for one molecule.

In general, Kd refers to the constant that tells how readily two partners part at equilibrium. High values mean weaker binding, low ones tighter binding.

Holding throughout (conditions): free fluorescent UBA domain
One assay concerns the target T1, K63-Ub2 (Homo sapiens, UniProt P0CG47, K63R).
T1 construct: Ub and K48- and K63-linked diUb and tetraUb were made as described; made in house
Nature of the assay: Fluorescence anisotropy binding of fluorescent free UBA domains to K63-Ub2. The source says: (§1) Fluorescent Labeling. Ede1 UBA, hHR23A UBA1, Dsk2 UBA and Ddi1 UBA were produced as intein fusions and fluorescently labeled using expressed protein ligation as described in Scheibner et al., 2003. The dipeptide used for Ede1 labeling was Cys-Lys, with NHS-rhodamine (Pierce) coupled to the lysine amino group, and was a kind gift from Philip Cole (Johns Hopkins School of Medicine). MALDI mass spectroscopy confirmed the addition of the fluorescent dipeptide to the Ede1 UBA domain and that there was complete cleavage of the initiating methionine residue. hHR23A UBA1, Dsk2, and Ddi1 UBAs were labeled in a similar way, except that the dipeptide contained a fluorescein moiety instead of rhodamine. The fluorescein-labeled dipeptide was made as described in Scheibner et al., 2003. […]
(§2) Fluorescence Anisotropy Binding Assays. Fluorescence anisotropy measurements were performed as described (Sims and Cohen, 2009) using excitation and emission maxima of 492 nm/520 nm (fluorescein), 556 nm/569 nm (Alexa Fluor 546), or 555 nm/578 nm (rhodamine), in binding buffer at 25° C. The concentrations of the fluorescent proteins were calculated using published extinction coefficients (Invitrogen-Molecular Probes). polyUb concentrations were assessed from absorbance at 280 nm using the Ub extinction coefficient of 0.16 (mg per ml)^−1 cm^'1.49. […]
For orientation: Fluorescence polarisation rises when a labelled molecule tumbles more slowly, as on binding a larger partner.

The next assay has as its target T2, K48-Ub2 (Homo sapiens, UniProt P0CG47, K48R).
T2 construct: Ub and K48- and K63-linked diUb and tetraUb were made as described; made in house
Nature of the assay: Fluorescence anisotropy binding of fluorescent free UBA domains to K48-Ub2.
Excerpt: as §1, §2

The target in another assay is T3, K63-Ub4 (Homo sapiens, UniProt P0CG47, K63R).
T3 construct: Ub and K48- and K63-linked diUb and tetraUb were made as described; made in house
Nature of the assay: Fluorescence anisotropy binding of fluorescent free UBA domains to K63-Ub4.
Excerpt: as §1, §2

Another assay deals with K48-Ub4. Nature of the assay: Fluorescence anisotropy binding of fluorescent free UBA domains to K48-Ub4.
Excerpt: as §1, §2

B1: Ede1 (protein, UniProt P34216 1-1381, looked up)
EH domain-containing and …: MASITFRTPLSSQEQAFYNQKFHQLDTEDLGVVTGEAVRPLFASSGLPGQLLSQVWATVDIDNKGFLNLNEFSAALRMIAQLQNAPNQPISAALYESTPTQLASFSINQNPAPMQSGSATGNTNNTDIPALSSNDIAKFSQLFDRTAKGAQTVAGDKAKDIFLKARLPNQTLGEIWALCDRDASGVLDKSEFIMAMYLIQLCMSHHPSMNTPPAVLPTQLWDSIRLEPVVVNQPNRTTPLSANSTGVSSLTRHSTISRLSTGAFSNAASDWSLSFEKKQQFDAIFDSLDKQHAGSLSSAVLVPFFLSSRLNQETLATIWDLADIHNNAEFTKLEFAIAMFLIQKKNAGVELPDVIPNELLQSPALGLYPPNPLPQQQSAPQIAIPSRASKPSLQDMPHQVSAPAVNTQPTVPQVLPQNSNNGSLNDLLALNPSFSSPSPTKAQTVVQNNTNNSFSYDNNNGQATLQQQQPQQPPPLTHSSSGLKKFTPTSNFGQSIIKEEPEEQEQLRESSDTFSAQPPPVPKHASSPVKRTASTTLPQVPNFSVFSMPAGAATSAATGAAVGAAVGAAALGASAFSRSSNNAFKNQDLFADGEASAQLSNATTEMANLSNQVNSLSKQASITNDKKSRATQELKRVTEMKNSIQIKLNNLRSTHDQNVKQTEQLEAQVLQVNKENETLAQQLAVSEANYHAAESKLNELTTDLQESQTKNAELKEQITNLNSMTASLQSQLNEKQQQVKQERSMVDVNSKQLELNQVTVANLQKEIDGLGEKISVYLTKQKELNDYQKTVEEQHAQLQAKYQDLSNKDTDLTDREKQLEERNRQIEEQENLYHQHVSKLQEMFDDLSQRKASFEKADQELKERNIEYANNVRELSERQMNLAMGQLPEDAKDIIAKSASNTDTTTKEATSRGNVHEDTVSKFVETTVENSNLNVNRVKDDEEKTERTESDVFDRDVPTLGSQSDSENANTNNGTQSGNETANPNLTETLSDRFDGDLNEYGIPRSQSLTSSVANNAPQSVRDDVELPETLEERDTINNTANRDNTGNLSHIPGEWEATPATASTDVLSNETTEVIEDGSTTKRANSNEDGESVSSIQESPKISAQPKAKTINEEFPPIQELHIDESDSSSSDDDEFEDTREIPSATVKTLQTPYNAQPTSSLEIHTEQVIKYPAPGTSPSHNEGNSKKASTNSILPVKDEFDDEFAGLEQAAVEEDNGADSESEFENVANAGSMEQFETIDHKDLDDELQMNAFTGTLTSSSNPTIPKPQVQQQSTSDPAQVSNDEWDEIFAGFGNSKAEPTKVATPSIPQQPIPLKNDPIVDASLSKGPIVNRGVATTPKSLAVEELSGMGFTEEEAHNALEKCNWDLEAATNFLLDSA
For the molecule B1, the Kd with K63-Ub2 was found to be 120 µM; with K48-Ub2, 86 µM; in the assay with K63-Ub4 it was 54 µM; on K48-Ub4, 31 µM.
